Data from a protein production outcome set (Wang et al. 2014).

Assay: label from the status in PepcDB records
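Further: failed if final PepcDB status was selected cloned or expressed and not failed if soluble or beyond.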

Row | Sequence | protein production
1 | MNSFWLSLAPVLWLTIIAIPVGILFNAAIVFGLYSIILLGIVIYHIHTLYCLEQWLHHSDLSYATVPDRSGLWGVVFARLARFVRRHDKERLGLNTSLERLQRATSALPEGIVILGDKDQIEWCNSAAERHLGLNLEMDAGQHITRMVRQVRFVAYLDMGDFSKPFLLNQSRLRDVLLSIQIVPYGDREKLLISQDVTRFEKIEIMRRDFVANVSHELRTPLTVIGGFLETLLEENKISGEMEKNALRLMSDQAIRMRRLVEDLLTLSRLENAGNNLTEEQVDVVKLLQGLYQEAQSLSAGRHVISLNLASHAMLLGSEDELRSAFENLISNAVRYTPESGIISLNWVVENGKGLFYVQDSGIGIEPNHIPRLTERFYRVDRSRSRETGGTGLGLAIVKHVLNRHQASMEITSQPGAGSIFRIWFPSNRVLPAETAPVISSSPEHTKQNSAA | failed
2 | MNSFWTFLQLIFVILQVTSLALYALLPAPWSDTVLVAMILFSLIIGIVIWWWSRRNALTAPFRQPFLSSDSLQLFEQVFNDLPTRVYWRDPELKLLGGNRAFANDFGIDPESLAGKTDAEIDSLASNDVLLERDRKTFSQQAPSVNAEIELKVSGKSQWVEHSSVPLYDDDHNIIGILGSYYDISGIKSVAEEMEKAKETAERANQSKGEFLANMSHEIRTPINAIVGMANLCLKTELTQKQKRYIKVIDSSSQALLGVINDILDFSKIDAGKLTVERIPFDLQDVLTSLADMFAYRAYDKDLEFIINLPANIPTRLIGDPLRLNQVLVNLISNAIKFTEDGEINVAVNLLDSSRDNVLLRISVTDTGIGMDEEQRANLFKAFTQADTSTTRKYGGTGLGLAISRRLILLMGGDIGVTSAAGQGSTFYIEVELPLQTEQDNSHHQYLLQKLKGVRILAIDDNLSTREMLYEMLRSYQVDVKVCRTAEQALQVFQLSVEDNNPYQLVLVDWRLPGMDGLEFCQKITERYAEDIRPKMTLATGYYAEELSEKAKQAGVNDIISKPFTASTLGRSLTSTLFQRELSDADDADSGDGIPESILRAPILVVEDNEINQQVAREILSSHKFKVDIVENGQLAVEAVHNKNYSLVLMDIQMPVMDGLKAAQTIRADFNYQQLPILAMTANAMSGDEERSLAAGMQGHIAKPIDEQQLIKAIIKWAVPGDYTNNQQPEVPPESKQDEVNKPPVRIPQVKGIEFETALKRLQYNVELYLKLVEQLYETYQGSATKVSDFITRGQHESARRYFHSLKGAAANLGFTQLQSKAADLEQFMAEGNIDKVADQITELEKRLRYAHQAAVDLEAIQQHQS | failed
3 | MNSGTLLGKASISFSRPVYIQSCASVVGPKEGDGPLKNCFDMICDDPMFGEKKWEAAESAMQKEAAVLAIGKAGLTPDDIRFVFAGDLLAQTIASSFGIAEMGIPFFGLYGACSTMGESLSLGAIAVSAGYGHHILCATSSHFATAEKEFRFPLGYGCQRPLSATWTVTGSAACILSPEAPHPSEIVGSSLLRSTLGSVAITGITTGKVIDFGFRDSLNMGGCMAPAACDTIYRNFEDFGRSVNDYDAVLTGDLGVVGRQILLDLLKEKNIDLSSVHQDCGLLIYDNQKQDTHSGGSGCGCAASVLAAYILPRVVSGFWKRVLFVPTGAMLSKVSFNEGESVAGIAHGVVIEHISKETEV | failed
4 | MNSLPIADLLVSAVIAACIVLSAMRGVIAEAGSMAAWVVSFFFAKLFAASFADLAFASFQPRLFALALSFISLFVIACLIQKMLRSLLTSAVSAVGLGFANRILGGVFGALKGVLIVTLLVMLASKTDLPDTEEWRQSYTLPFFVSLSEAVLNHSGGTAETPEDD | failed
5 | MNSPANITDPLVLFMPSGKRGRFPVGTPVLDAARQLGVYVESVCGGRATCGRCQIEVQEGNFAKHKIVSSNDHISPKGPKEERYERVRGLPERRRLSCSAQILGDLVIDVPQDTVINAQTIRKDADTRVIARDTAIRMCYVEIEEPDMHKPLGDLDRLKIALMKDWGFKNLEFDFYLLPQVQGILRKGNWTATAAIHKDADSDIARVIALWPGLKNEAYGLACDIGSTTIAMHLVSLLSGRVAASSGTSNPQIRFGEDLMSRVSYVMMNPDGREGMTVAVREAISSLVDKVCAEGNVQRNDILDSVFVGNPIMHHLFLGIDPTELGGAPFALAVSGAVRIKASDIGLKLNQGARLYMLPCIAGHVGADAAAVTLSEGPHRQDEMMLIVDVGTNAEIVLGNRARVVAASSPTGPAFEGAEISGGQRAAPGAIERVRIDPDTLEPKYRVIGSELWSDEPGFLDSVQATGVTGICGSGIIEIVAEMYLAGIISEDGVVDGSLAARSPRVTANGRTFSYVLKEGEPKITITQTDVRAIQLAKAALYAGTKLLMEKQNTEHVDRIHFAGAFGSFIDPKYAMVLGLIPDCDLDKVSAVGNAAGAGARMALLNRGYRREIEETVSQIEKIETALEPKFQEHFVYAMALPNKVDPFPKLSAAVKLPPRKTVSEDGIAGDATPRRRSREGHAARRSRE | failed
6 | MNSQPRHFAPLARLLHWLMALLIIAMLFIGAGMVASVSARHEWLIHLHKPLGIAILLLVLVRLWVRFYTRQPPLPADLPGWQVLAAKASHVLLYALMLSLPLLGWGMISAAGDPVMLGSSLQLPAILPANAQLFAVLRKAHGYLAYLLFFTVLLHLAAALFHGWVRRDGVLQSMLRGRG | not failed
7 | MNSRLGTTASSITRSALPTTVVWDPAMTAYNFGPGHPMAPQRLELTARLAESLGLFNHNHVAVEAPTVATDVELFSVHSRDYVEAVRRVSADPSAPEEERGLGTEDDPAFAGMHEASARLAGGSLLAAETILSGQAVRAVNFSGGMHHAARERASGFCVYNDVALAIQKLLDGGVQRVVSIDVDAHHGDGTQSIFWNDPRVMTISLHETGLTLFPGTGFANETGGPDAPGTAVNVALPAFTGDAAWLRAFHAVVPQLVGAFQPEVIVSQHGCDSHRDDPLTHLNLSVDGQREAASAVAGLAARYCDNRWIATGGGGYDVTGVVPRAWSHLIGMVTQRPVPLKTPVPEAWRSYVKETYGVWAPESMSDDVDVWWRSWEVGYNPADEVDRTVIATRKEIFPLYGLDPWFD | failed
8 | MNSYDETVQDIITAVGGKDNIEEVFHCVARLRFYLKDSTQLNKTILQKNSNIYDFKFENNQLQILIGSDVNKYYKALMKCINEDKDFSKAKKGNIKMSKSSDKDKQLAEQIVKLVGGKENVNSLIHCVTRLRFKLKDESKADDEAIKNLHGVMGVAHAGGQYQVIIGNNVTDIYDQVMPLLGLSSEQEVTQDDEKEGNIFSRLVALISSLFMPLLGVMTGAGMLKGLLVLFGVLGWVKQGTGTYMILNAAADALFYFLPILLGFTAGKTFKINPFVGAVTGGALVYPSMVAAATAHKAITFLGIPVNLMNYSQTMLPIVIAIWGMSWLEKGTKKIIPSSVRNLFVPLLDLMIVVPLAYIIIGPIMQTLSQWLSEASLWIYGILPVAAGFIIGGIWQGAVILGLHWAFIPVLMNNLMTNHFDPINGIMYCTLFGQVGACFAMGLKAKDKNFKEIAIPAAISGLVGITEPIIYGVTLPHKKAFAFASVGSAFGGAIAAACHAGMYTMPGGGIFGIPAFINPKGINMQFYGFLISLLVAIVVSFVLTMIFGDTVVPSAPKAKVQVKKAEFKDQAIYSPLEGTVVELKDVKDPVFSAGTIGKGIAVKPTNNEVRAPFDGKVISVFPTKHAIGLKSENGVELLIHLGIDTVNLQGKYFDSMVKDGQEIKKGDLIEKFDVQAIQEAGYDTVVPIVVTNSNNFDDVISEKKNGDKVNFGDQLLMATVEQDVNVQDSSIAKA | failed
9 | MNTEPANVEDKLPMNILVLGSDEKQGGRSDTIMLVHIQKDFQPIVISIPRDTRVKVEGIKGYSKINAAYAYGKSKLAVKTVEDILGIKIDKYVVVNYEAVEKIVDLVGGVDVEVPFHLYYVDTTPGKELYINIPAGLQHLDGKKAVEFLRWRHNSNGKEYGRGGDLGRIEMQRKLLYALIEKMLKPQNIVRLPLIVQTVSKYTDHNFTKNEIMWFIQNVGKFNTQNIMMTILPGYPKYIDRVSYYILNEEKCRALIDDLNEPEVLKDSMKIKILSKSFDDKATQLKNDLESKGYSNVNLGRVSKLESSEVELKRVNRKYLELLKNDIDLSTYQVVYSPDYSDKFDVYIKVKLEHHHHHH | not failed
10 | MNTHYVGPVLYTPKENVSEKLLKLFDADQPIIFCYTARFYDNVGESGKAIFDNMIKIADKIDASIIISTGNKKDELLALDIASKELKSGKVSIVDYVPLDMAYEKSDLVIHHGGHGSCLAQFYYGVPSVIIPTHTEREYNARMCEKLHVGKMLPRRELNSANLKNCINDVLNDITYKKSVRDWKEKVSGLEHHHHHH | failed
11 | MNTLLLTAGRVLLALYFLIPGIMKFVSWDMHIQLMEKHEMPFVPVLLGLAGVFQIGAAILLIANRFTWIVALLLAGLVLVINVSLHDFWNYSGMEGAHEMQNFIKNLGIFAGLLVLSGHSMPECCKTKKKS | failed
12 | MNTMEEKYILSDRGKVYYWIKESNSVFAKNLIFLPGLTANHHLFDFQIQYFSKNHNVLVWDAPAHGKSRPYLDFSYSNLVEELKVILDKQNMKKVVLIGQSAGGFVAQSFIVKYPNMVEGLMMIGTCPYGTDYYSKSDIFWLKQTEWMLKLFPDKLLRNIISKMCGATSEGRRSMLKMLEGYEKKELCHLMYLGFAGFIPEIQDLNIHCPVCLVVGDKDKTGKVRKYNEQWHNKTGYPLHIIKNASHNVNVDKPNELNQIMDIFIKQLN | not failed
13 | MNTSCTSYHSMALSESQRDILGMIATNHQLHDILTAICLMIDAQDPGTLCSILLTDAQGKHLLKGAAPGLPPAYSDAIHGLPIGPQEGTCGTAAFRRELVVTADIARDPSWERFRSLALGYNLRSCWSLPLLSHEGSVLGTFALYQDQAIAPSEVQIHRLTCAAQLAAIAIRH | failed
14 | MNTSGIGGYFRQGLFGRDLLASVVVFLVALPLCMGIAIASGMPPAAGLITGIVGGLVVGFLAGSPLQVSGPAAGLAVLVFELVREHGAVALGPVILVAGAIQLIAGLCRAGVWFRMTSPAVVAGMLSGIGILIVASQAHVLMDAAPKARGLENFAALPGVLWQAISEGTGRNALFVGLATIGIILAWDKLRPQRLRFLPGALIAVVVVTATVQLQGLNVNKVDVPTNLFSAISIPSISDIFGVFNHTLLVSAVTFAFIASAETLLSAAAVDRMHQGARTQYDRELAAQGVGNMLCGFLGALPMTGVIVRSAANVQAGAATRASTILHGSWLLVFAMLLPWLLRMTPVACLAGILVYTGVKMIKIGQVKELATYGRGTAAIYLATTFAIVATDLLTGVLIGFGLSLFRLALHSSRLKVEVREHADKKDEMHLTLQGSATFLKVPAMARTLESVPPNTALHLDVAKLHHVDHACIELLRDWSRNAASRGCELVVDWKELDRRVEGQPTVDGVLVEQRVEQAKAA | failed
15 | MNTSHVRVVTHMCGFLVWLYSLSMLPPMVVALFYKEKSLFVFFITFVIFFCIGGGAWYTTKKSGIQLRTRDGFIIIVMFWILFSVISAFPLWIDSELNLTFIDALFEGVSGITTTGATVIDDVSSLPRAYLYYRSQLNFIGGLGVIVLAVAVLPLLGIGGAKLYQSEMPGPFKDDKLTPRLADTSRTLWITYSLLGIACIVCYRLAGMPLFDAICHGISTVSLGGFSTHSESIGYFNNYLVELVAGSFSLLSAFNFTLWYIVISRKTIKPLIRDIELRFFLLIALGVIIVTSFQVWHIGMYDLHGSFIHSFFLASSMLTDNGLATQDYASWPTHTIVFLLLSSFFGGCIGSTCGGIKSLRFLILFKQSKHEINQLSHPRALLSVNVGGKIVTDRVMRSVWSFFFLYTLFTVFFILVLNGMGYDFLTSFATVAACINNMGLGFGATASSFGVLNDIAKCLMCIAMILGRLEIYPVIILFSGFFWRS | failed
16 | MNTTEFDGISHAEGLCDKEFIGKAISYLYRYGQIYIGKKIEPYGIGSGQFPFLMRLYREDGINQESLSDYLKIDKGTTARAIQKLVDEGYVFRQRDEKDRRSYRVFLTEKGKKLEPDMKKIASEWGEILFSSFDDRQRREITNSLEIMFENGLKIM | not failed
